Laboratory results as given in patent US20260258113A1, “BETA GLOBIN MIMETIC PEPTIDES AND THEIR USE” (THE UNITED STATES OF AMERICA, AS REPRESENTED BY THE …, priority 2022, published 2026).

Target: endothelial nitric oxide synthase (eNOS), endogenous, in human resistance arteries (human) (UniProt P29474)
Experiment: cell-based or functional assay

Chain of endothelial nitric oxide synthase (eNOS), endogenous, in human resistance arteries (human) (P29474 2-1203 limits assumed): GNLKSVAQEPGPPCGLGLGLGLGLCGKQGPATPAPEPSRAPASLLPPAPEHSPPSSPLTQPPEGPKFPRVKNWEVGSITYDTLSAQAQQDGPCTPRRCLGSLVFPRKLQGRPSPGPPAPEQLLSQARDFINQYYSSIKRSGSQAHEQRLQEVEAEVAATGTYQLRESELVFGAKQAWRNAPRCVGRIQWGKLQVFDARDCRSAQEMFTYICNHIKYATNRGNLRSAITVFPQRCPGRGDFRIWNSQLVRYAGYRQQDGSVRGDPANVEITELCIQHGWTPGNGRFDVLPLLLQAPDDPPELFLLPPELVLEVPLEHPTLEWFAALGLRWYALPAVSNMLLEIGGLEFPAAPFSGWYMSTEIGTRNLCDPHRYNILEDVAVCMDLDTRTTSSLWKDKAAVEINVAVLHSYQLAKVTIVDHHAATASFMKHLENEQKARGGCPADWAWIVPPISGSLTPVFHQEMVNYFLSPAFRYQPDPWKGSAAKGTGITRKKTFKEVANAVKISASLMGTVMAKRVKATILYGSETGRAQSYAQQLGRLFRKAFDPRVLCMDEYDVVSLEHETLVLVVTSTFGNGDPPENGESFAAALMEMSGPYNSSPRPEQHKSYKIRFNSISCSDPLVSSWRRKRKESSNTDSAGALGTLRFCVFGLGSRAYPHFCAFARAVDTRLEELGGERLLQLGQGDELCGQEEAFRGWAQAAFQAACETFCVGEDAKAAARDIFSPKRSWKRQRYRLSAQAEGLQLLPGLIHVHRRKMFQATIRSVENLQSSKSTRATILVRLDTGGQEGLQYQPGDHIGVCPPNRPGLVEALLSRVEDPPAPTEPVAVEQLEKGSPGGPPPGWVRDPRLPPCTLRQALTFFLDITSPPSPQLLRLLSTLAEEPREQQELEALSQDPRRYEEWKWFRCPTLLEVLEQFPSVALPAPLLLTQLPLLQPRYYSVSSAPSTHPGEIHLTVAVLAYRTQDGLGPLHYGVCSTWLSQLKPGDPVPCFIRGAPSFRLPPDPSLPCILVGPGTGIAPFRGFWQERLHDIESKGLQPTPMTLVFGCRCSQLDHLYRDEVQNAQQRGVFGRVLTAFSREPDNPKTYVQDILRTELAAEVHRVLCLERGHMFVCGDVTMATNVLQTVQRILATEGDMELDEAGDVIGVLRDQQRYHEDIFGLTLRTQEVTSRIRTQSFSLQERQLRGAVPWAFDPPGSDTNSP

For “alpha globin mimetic peptide HbαX with N-terminal HIV-tat tag”, the Bottom (4-PL minimum of phenylephrine-induced constriction, % of baseline diameter), PE + Mimetic + LNAME, human omental arteries, pressure myography (% of baseline diameter) was 41.9 and the Bottom (4-PL minimum of phenylephrine-induced constriction, % of baseline diameter), PE + Mimetic, human omental arteries, pressure myography, peptide 5 µmol/L (% of baseline diameter) was 64.6.
